One assay concerns the target IL-2 (Homo sapiens) (UniProt P60568). To be noted: cited from earlier work.
The target of a further assay is IL-15 (Homo sapiens) (UniProt P40933). Particulars: cited from earlier work.
In assay [1] the target is trimeric IL-15Rα/IL-2Rβ/γc receptor on Kit225 cells (human (endogenous in Kit225)) (UniProt Q13261).

pKd: −log10 of the molar value. Where only a bound is given, the exact number is not on record here.

For orientation: pKd means −log10 of the Kd, conventionally taken in molar units.

Sequence of UniProt P60568 (P60568 21-153): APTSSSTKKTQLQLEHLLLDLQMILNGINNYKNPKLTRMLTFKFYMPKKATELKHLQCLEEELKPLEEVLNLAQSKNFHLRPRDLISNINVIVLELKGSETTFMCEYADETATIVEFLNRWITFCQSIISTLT
Sequence of UniProt P40933 (P40933 49-162): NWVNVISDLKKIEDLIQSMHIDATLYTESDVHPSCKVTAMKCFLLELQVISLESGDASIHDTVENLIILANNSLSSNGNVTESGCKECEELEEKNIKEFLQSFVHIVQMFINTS

Take IL-2Rα (from UniProt P01589): the pKd with IL-2 (Homo sapiens) was 8.00.
On to IL-15Rα (from UniProt Q13261), for which the pKd with IL-15 (Homo sapiens) is 10.30.
On to “NANTIL-15 (New ANTagonist of IL-15), human IL-15 L45D-N65K-L69R linked to a human Fc (IgG1) (Fc fusion)”, for which, in assay [1], the IC50 of inhibition of IL-15- or IL-15D8S-induced Kit225 cell proliferation by increasing NANTIL-15 was under 1 nM, the IC50 of inhibition of IL-15-induced Stat5 phosphorylation in Kit225 cells by increasing NANTIL-15 (blocks IL-15 acting through the trimeric IL-15Rα/IL-2Rβ/γc receptor) was 1 nM, the IC50 of inhibition of IL-15D8S-induced pStat5 signal in Kit225 cells by increasing NANTIL-15 (IL-15D8S signals only through the trimeric receptor) worked out at 1 nM and the plateau of inhibition of IL-15-induced Stat5 phosphorylation in Kit225 cells by increasing NANTIL-15 was found to be 60%.

The values are drawn from publication PMC9110858.
